For the test, the target named is dopamine D2 receptor labelled with mCherry (D2R-mCherry) (UniProt P14416).
Sequence of UniProt P14416 (P14416 whole entry): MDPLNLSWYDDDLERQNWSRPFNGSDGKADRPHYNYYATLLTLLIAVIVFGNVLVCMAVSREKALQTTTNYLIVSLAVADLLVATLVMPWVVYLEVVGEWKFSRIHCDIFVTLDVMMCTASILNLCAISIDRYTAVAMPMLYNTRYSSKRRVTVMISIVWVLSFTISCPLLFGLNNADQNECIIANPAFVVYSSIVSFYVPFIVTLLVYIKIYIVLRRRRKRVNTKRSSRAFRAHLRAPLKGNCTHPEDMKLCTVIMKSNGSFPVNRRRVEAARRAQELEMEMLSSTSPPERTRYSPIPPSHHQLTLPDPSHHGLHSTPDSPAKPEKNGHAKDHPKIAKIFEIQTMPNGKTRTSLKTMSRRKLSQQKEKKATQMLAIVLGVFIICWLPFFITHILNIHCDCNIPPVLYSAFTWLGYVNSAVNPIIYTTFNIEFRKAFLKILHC
For the substance “Gαi3β1γ2 heterotrimer (Gαi3-Citrine with Gβ1 and Gγ2) (from UniProt P08754 1-354; P62873 1-340; P59768 1-71) (complex)”, the intracellular cAMP level in HEK293 cells after stimulation of D2R with 1 μM sumanirole, as percent of control (stimulated nontransfected cells) (% of the control) stood at 20.

For “Gαi3β1γ9 heterotrimer (Gαi3-Citrine with Gβ1 and Gγ9) (from UniProt P08754 1-354; P62873 1-340; O14610 1-69) (complex)”, the intracellular cAMP level in HEK293 cells after stimulation of D2R with 1 μM sumanirole, as percent of control (stimulated nontransfected cells) (% of the control) was determined as 70.4.

“Gαi3β1γ10 heterotrimer (Gαi3-Citrine with Gβ1 and Gγ10) (from UniProt P08754 1-354; P62873 1-340; P50151 1-68) (complex)” came in with an intracellular cAMP level in HEK293 cells after stimulation of D2R with 1 μM sumanirole, as percent of control (stimulated nontransfected cells) (% of the control) of 14.4.

For the origin of these results see PMC10566112.
